In patent EP3025729B1 (Glaxo Group Limited, dated 2018):

Columns and labels:
[1] = target: T1, human serum amyloid P component (SAP) (human, UniProt P02743 20-223); experiment: ELISA, human SAP directly immobilised at 1 µg/mL
T1 construct: Purified from human material; In some assays it stood denatured (reduced SDS-PAGE); this is said under assay; also called human SAP; homo sapiens SAP

cynomologus monkey SAP = target: T2, cynomologus monkey SAP (cynomolgus monkey, UniProt A0A7N9DA00 20-223); experiment: Biacore, cyno SAP amine-coupled on C1 chip, culture supernatant
T2 construct: also called cyno SAP; cynomolgus monkey serum amyloid P component
T2 sequence (A0A7N9DA00 entry or part of it): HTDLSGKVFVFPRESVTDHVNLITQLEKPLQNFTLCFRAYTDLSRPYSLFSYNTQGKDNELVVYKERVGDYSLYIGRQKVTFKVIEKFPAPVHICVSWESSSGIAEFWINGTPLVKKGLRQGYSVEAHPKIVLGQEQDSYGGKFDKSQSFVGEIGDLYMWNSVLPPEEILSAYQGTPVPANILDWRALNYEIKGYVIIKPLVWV

T1 sequence (P02743 20-223, form in doubt): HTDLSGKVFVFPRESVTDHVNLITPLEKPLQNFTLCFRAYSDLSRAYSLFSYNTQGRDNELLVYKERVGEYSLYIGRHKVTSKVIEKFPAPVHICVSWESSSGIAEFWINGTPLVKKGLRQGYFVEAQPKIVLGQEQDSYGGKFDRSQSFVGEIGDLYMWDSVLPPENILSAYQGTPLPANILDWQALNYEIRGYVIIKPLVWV

Binder | fold loss of human SAP binding activity compared to SAP-K chimera [1] | binding result (cynomologus monkey SAP)
SAP-K H1L0 humanised antibody (antibody, V domains shown) VH: QVQLVQSGAEVKKPGSSVKVSCKASGYTFTSYWMHWVRQAPGQGLEWMGMIHPNSVNTNYNEKFKSRVTITADKSTSTAYMELSSLRSEDTAVYYCARRNDYYWYFDVWGQGTLVTVSS VL: DIQMTQSPSSLSASVGDRVTITCKASQNVNSNVAWYQQKPGKAPKLLIYSASYRYSGVPSRFSGSGSGTDFTLTISSLQPEDFATYYCQQCNNYPFTFGQGTKLEIK | ~2 fold | 
SAP-K H2L0 humanised antibody (antibody, V domains shown) VH: QVQLVQSGAEVKKPGSSVKVSCKASGYTFTSYWMHWVRQAPGQGLEWIGMIHPNSVNTNYNEKFKSRATITADKSTSTAYMELSSLRSEDTAVYYCARRNDYYWYFDVWGQGTLVTVSS VL: DIQMTQSPSSLSASVGDRVTITCKASQNVNSNVAWYQQKPGKAPKLLIYSASYRYSGVPSRFSGSGSGTDFTLTISSLQPEDFATYYCQQCNNYPFTFGQGTKLEIK | ~2 fold | 
SAP-K H0L0 humanised antibody (antibody, V domains shown, also called SAP-K HOLO) VH: QVQLVQSGAEVKKPGSSVKVSCKASGGTFSSYWMHWVRQAPGQGLEWMGMIHPNSVNTNYNEKFKSRVTITADKSTSTAYMELSSLRSEDTAVYYCARRNDYYWYFDVWGQGTLVTVSS VL: DIQMTQSPSSLSASVGDRVTITCKASQNVNSNVAWYQQKPGKAPKLLIYSASYRYSGVPSRFSGSGSGTDFTLTISSLQPEDFATYYCQQCNNYPFTFGQGTKLEIK | ~2 fold | no binding
